Earlier results, collected in patent publication US11749377B2, “Method and electronic system for predicting at least one fitness value of a protein, related computer program product” (PEACCEL, priority 2015, dated 2023).

What was measured:
[1] = molecular target: T1, GLP-1 receptor (Rattus norvegicus, UniProt P32301); conditions: Log(EC50), adenylate cyclase activity
T1 sequence (P32301 22-463): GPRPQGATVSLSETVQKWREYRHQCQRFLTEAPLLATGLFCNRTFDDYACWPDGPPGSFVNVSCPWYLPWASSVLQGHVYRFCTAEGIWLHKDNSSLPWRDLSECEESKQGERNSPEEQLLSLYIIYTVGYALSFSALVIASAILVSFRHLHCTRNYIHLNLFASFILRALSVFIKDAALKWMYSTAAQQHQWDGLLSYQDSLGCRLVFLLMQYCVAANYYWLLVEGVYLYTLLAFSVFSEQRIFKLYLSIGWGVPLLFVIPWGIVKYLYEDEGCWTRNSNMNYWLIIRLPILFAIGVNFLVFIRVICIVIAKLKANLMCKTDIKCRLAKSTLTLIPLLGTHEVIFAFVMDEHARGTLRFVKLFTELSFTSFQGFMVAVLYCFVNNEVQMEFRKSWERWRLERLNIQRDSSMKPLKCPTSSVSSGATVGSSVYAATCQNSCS

[2] = molecular target: T2, rat GLP-1 receptor (Rattus norvegicus, UniProt P32301); conditions: Log(IC50), binding affinity to rat GLP-1 receptor
T2 sequence (P32301 22-463): T1 sequence (P32301 22-463)

Substance | logEC50 [1] | logIC50 [2]
GLP1 A2S: single mutant analog of human GLP1 | 0.301 | 0.3802
GLP1 D9A: single mutant analog of human GLP1 | – | 1.041
GLP1 E3A: single mutant analog of human GLP1 | 0.301 | 0.9085
GLP1 F22A: single mutant analog of human GLP1 | 3.415 | 2.545
GLP1 G16A: single mutant analog of human GLP1 | 0.6021 | −0.2441
GLP1 G29A: single mutant analog of human GLP1 | 0 | 0.1139
GLP1 I23A: single mutant analog of human GLP1 | 1.8451 | 1.398
GLP1 K20A: single mutant analog of human GLP1 | 1.114 | 0.1461
GLP1 K28A: single mutant analog of human GLP1 | 0.301 | 0.2304
GLP1 Q17A: single mutant analog of human GLP1 | 0.699 | 0.04139
GLP1 R30A: single mutant analog of human GLP1 | 0.8451 | 0.6628
GLP1 S8A: single mutant analog of human GLP1 | 0.699 | −0.1192
GLP1 S11A: single mutant analog of human GLP1 | 0.4771 | −0.3372
GLP1 S12A: single mutant analog of human GLP1 | 0.301 | −0.1675
GLP1 W25A: single mutant analog of human GLP1 | 1.176 | 0.2041
GLP1 Y13A: single mutant analog of human GLP1 | 1.74 | 0.5441

Results, then the substance that gave them:

logEC50 [1] | logIC50 [2] | Substance
1.23 | −0.05061 | GLP1 A18R: single mutant analog of human GLP1
1.813 | 0.6128 | GLP1 E15A: single mutant analog of human GLP1
1.519 | 1.5563 | GLP1 F6A: single mutant analog of human GLP1
– | 1.771 | GLP1 G4A: single mutant analog of human GLP1
0.8451 | 0.2304 | GLP1 L14A: single mutant analog of human GLP1
0.6021 | 0.6721 | GLP1 L26A: single mutant analog of human GLP1
0.699 | 0.5441 | GLP1 T5A: single mutant analog of human GLP1
1.813 | 1.5563 | GLP1 T7A: single mutant analog of human GLP1
0.8451 | 0.2304 | GLP1 V10A: single mutant analog of human GLP1
0.301 | 0.1461 | GLP1 V27A: single mutant analog of human GLP1
